B1: HSP90AB1 (parent)
chain: TLRQKAEADKNDKAVKDLVVLLFE

Variants of: B1
Assay: protein stability index of a GFP-peptide fusion (GPS, HEK-293T) (PSI 1-6); higher = more stable
Conditions: c terminus: a fixed tail appended
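Also: lentivirally expressed fusions sorted by FACS into six bins by GFP to DsRed ratio, PSI derived from sequencing read proportions per bin multiplied by bin number.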

| Variant | protein stability index |
| --- | --- |
| TLRQKAEADKNDKAVKDLVVLLME [F23M] | 3.37 |
| TLRQKAEADKNDKAVKDLVVLLDE [F23D] | 5.38 |
| TLRQKAEADKNRKAVKDLVVLLFE [D12R] | 3.48 |
| TLRQKAEADKNWKAVKDLVVLLFE [D12W] | 2.07 |
| TLRQKAEADKNPKAVKDLVVLLFE [D12P] | 2.49 |
| TLRQKAEADKNTKAVKDLVVLLFE [D12T] | 2.22 |
| TLRQKAEADKNQKAVKDLVVLLFE [D12Q] | 2.7 |
| TLRQKAEADKNSKAVKDLVVLLFE [D12S] | 3.17 |
| TLRQKAEADKNDKAVKDLVLLLFE [V20L] | 3.13 |
| TLRQKAEADKNDKAVKDLVWLLFE [V20W] | 2.58 |
| TLRQKAEADKNDKAVKDLVCLLFE [V20C] | 3.53 |
| TLRQKAEADKNDKAVKDLVALLFE [V20A] | 4.47 |
| TLRQKAEADKNDKAVKDLVGLLFE [V20G] | 3.64 |
| TLRQKAEADKNDKAVKDLVPLLFE [V20P] | 4.05 |
| TLRQKAEADKNDKAVKDLVRLLFE [V20R] | 2.88 |
| TLRQKAEADKNDKAVKDLVSLLFE [V20S] | 4.6 |
| TLRQKAEADKNDKAVKDLVFLLFE [V20F] | 2.96 |
| TLRQKAEADKNDKAVKDLVMLLFE [V20M] | 3.77 |
| TLRQKAEADKNDKAVKDLVNLLFE [V20N] | 4.46 |
| TLRQKAEADKNDKAVKDLVDLLFE [V20D] | 5.3 |
| TLRQKAEADKNDKAVKDLVHLLFE [V20H] | 3.43 |
| TLRQKAEADKNDKAVKDLVYLLFE [V20Y] | 2.7 |
| TLRQKAEADKNDKAVKDLVQLLFE [V20Q] | 4.1 |
| TLRQKAEADKNDKAVKDLVELLFE [V20E] | 5.2 |

| Variant | protein stability index |
| --- | --- |
| TLRQKAEADKNDKAVKDLVTLLFE [V20T] | 3.48 |
| TLRQKAEADKNDKAVKDLVVLRFE [L22R] | 3.9 |
| TLRQKAEADKNDKAVKDLVVLHFE [L22H] | 3.79 |
| TLRQKAEADKNDKAVKDLVVLMFE [L22M] | 3.15 |
| TLRQKAEADKNDKAVKDLVVLPFE [L22P] | 4.97 |
| TLRQKAEADKNDKAVKDLVVLVFE [L22V] | 3.73 |
| TLRQKAEADKNDKAVKDLVVLKFE [L22K] | 4.47 |
| TLRQKAEADKNDKAVKDLVVLCFE [L22C] | 3.82 |
| TLRQKAEADKNDKAVKDLVVLQFE [L22Q] | 4.84 |
| TLRQKAEADKNDKAVKDLVVLYFE [L22Y] | 2.78 |
| TLRQKAEADKNDKAVKDLVVLNFE [L22N] | 4.2 |
| TLRQKAEADKNDKAVKDLVVLFFE [L22F] | 2.84 |
| TLRQKAEADKNDKAVKDLVVLGFE [L22G] | 4.5 |
| TLRQKAEADKNDKAVKDLVVLEFE [L22E] | 4.86 |
| TLRQKAEADKNDKAVKDLVVLDFE [L22D] | 4.86 |
| TLRQKAEADKNDKAVKDLVVLTFE [L22T] | 3.96 |
| TLRQKAEADKNDKAVKDLVVLSFE [L22S] | 4.34 |
| TLRQKAEADKNDKAVKDLWVLLFE [V19W] | 2.7 |
| TLRQKAEADKNDKAVKDLKVLLFE [V19K] | 4.26 |
| TLRQKAEADKNDKAVKDLEVLLFE [V19E] | 5.04 |
| TLRQKAEADKNDKAVKDLRVLLFE [V19R] | 4.18 |
| TLRQKAEADKNDKAVKDLMVLLFE [V19M] | 2.44 |
| TLRQKAEADKNDKAVKDLPVLLFE [V19P] | 4.38 |
| TLRQKAEADKNDKAVKDLIVLLFE [V19I] | 3.5 |

| Variant | protein stability index |
| --- | --- |
| TLRQKAEADKNDKAVKDLQVLLFE [V19Q] | 4.23 |
| TLRQKAEADKNDKAVKDLSVLLFE [V19S] | 4.08 |
| TLRQKAEADKNDKAVKDLAVLLFE [V19A] | 3.72 |
| TLRQKAEADKNDKAVKDLCVLLFE [V19C] | 3.16 |
| TLRQKAEADKNDKAVKDLHVLLFE [V19H] | 4.22 |
| TLRQKAEADKNDKAVKDLGVLLFE [V19G] | 4.16 |
| TLRQKAEADKNDKAVKDLDVLLFE [V19D] | 4.61 |
| TLRQKAEADKNDKAVKDLLVLLFE [V19L] | 2.68 |
| TLRQKAEADKNDKAVKDLYVLLFE [V19Y] | 3.1 |
| TLRQKAEADKNDKAVKDLTVLLFE [V19T] | 4.13 |
| TLRQKAEADKNDKAVKDLFVLLFE [V19F] | 2.96 |
| TLRQKAEADKNDKAVKDLNVLLFE [V19N] | 3.91 |
| TLRQKAEADKNDKAVKDLVVYLFE [L21Y] | 2.41 |
| TLRQKAEADKNDKAVKDLVVNLFE [L21N] | 3.89 |
| TLRQKAEADKNDKAVKDLVVELFE [L21E] | 3.98 |
| TLRQKAEADKNDKAVKDLVVSLFE [L21S] | 3.44 |
| TLRQKAEADKNDKAVKDLVVPLFE [L21P] | 4.61 |
| TLRQKAEADKNDKAVKDLVVALFE [L21A] | 2.67 |
| TLRQKAEADKNDKAVKDLVVDLFE [L21D] | 4.26 |
| TLRQKAEADKNDKAVKDLVVKLFE [L21K] | 2.91 |
| TLRQKAEADKNDKAVKDLVVVLFE [L21V] | 3.06 |
| TLRQKAEADKNDKAVKDLVVFLFE [L21F] | 2.35 |
| TLRQKAEADKNDKAVKDLVVQLFE [L21Q] | 3.52 |
| TLRQKAEADKNDKAVKDLVVTLFE [L21T] | 3.5 |

| Variant | protein stability index |
| --- | --- |
| TLRQKAEADKNDKAVKDLVVGLFE [L21G] | 3.63 |
| TLRQKAEADKNDKAVKDLVVRLFE [L21R] | 3.31 |
| TLRQKAEADKNDKAVKDLVVILFE [L21I] | 2.35 |
| TLRQKAEADKNDKAVKDLVVWLFE [L21W] | 1.73 |
| TLRQKAEADKNDKVVKDLVVLLFE [A14V] | 2.44 |
| TLRQKAEADKNDKRVKDLVVLLFE [A14R] | 2.62 |
| TLRQKAEADKNDKKVKDLVVLLFE [A14K] | 3.1 |
| TLRQKAEADKNDKPVKDLVVLLFE [A14P] | 2.99 |
| TLRQKAEADKNDKHVKDLVVLLFE [A14H] | 2.79 |
| TLRQKAEADKNDKMVKDLVVLLFE [A14M] | 2.73 |
| TLRQKAEADKNDKIVKDLVVLLFE [A14I] | 3 |
| TLRQKAEADKNDKTVKDLVVLLFE [A14T] | 2.57 |
| TLRQKAEADKNDKFVKDLVVLLFE [A14F] | 2.02 |
| TLRQKAEADKNDKLVKDLVVLLFE [A14L] | 2.63 |
| TLRQKAEADKNDKWVKDLVVLLFE [A14W] | 2.68 |
| TLRQKAEADKNDKQVKDLVVLLFE [A14Q] | 2.92 |
| TLRQKAEADKNDKGVKDLVVLLFE [A14G] | 3.17 |
| TLRQKAEADKNDKSVKDLVVLLFE [A14S] | 2.26 |
| TLRQKAEADKNDKEVKDLVVLLFE [A14E] | 3.64 |
| TLRQKAEADKNDKDVKDLVVLLFE [A14D] | 2.58 |
| TLRQKAEADKNDKNVKDLVVLLFE [A14N] | 2.56 |
| TLRQKAEADKNDKCVKDLVVLLFE [A14C] | 2.35 |

Source: the supplement of paper PMC10567573
